According to patent publication US20230034474A1 (AC IMMUNE, published 2023):
Like-named read-outs stand apart in the source and are kept apart here.

Columns and labels:
[1] = target: T1, Human Abeta1-42 biotinylated at the peptide C-terminus (human, biotin at the peptide C-terminus); test: target capture ELISA: antibody held by anti-mouse Fc, biotinylated Abeta1-42 titrated in solution
T1 construct: also called biotinylated Abeta1-42
Protocol: (§1) Briefly, a Nunc MaxiSorp 96-well plate (Nunc) was coated for 18 h at 4° C. with 50 μL of 5 pg/mL goat anti-mouse IgG, Fc-gamma fragment specific antibody (Jackson Immune Research) diluted in carbonate-bicarbonate buffer. The plate was then washed 4-times with 300 μL of PBS containing 0.05% Tween20 (Millipore). To block non-specific binding to the plate, freshly prepared solution of PBS containing 0.05% Tween20 and 1% BSA, was added to each well (100 μL/well) and the plate was incubated for 1 h at 37° C. […] Subsequently, the plate was washed 4-times with 300 μL of PBS containing 0.05% Tween20. […] After washing 4-times with 300 μL of PBS containing 0.05% Tween20, the plate was incubated for 45 min at ambient temperature with 50 μL/well of streptavidin-HRP (R&D systems) diluted 1:200 in PBS containing 1% BSA and 0.05% Tween20. The plate was again washed 4-times with 300 μL of PBS containing 0.05% Tween20 before incubating at ambient temperature for 20 or 30 min with 50 or 100 μL/well of 3,3′,5,5′-tetramethylbenzidine (TMB) enzyme substrate (BD Bioscience). Reaction was stopped with a 1.2 M HCl (Sigma) solution. Finally, optical densities (O.D.) were read at 450 nm absorption wavelength using a Tecan Infinite plate reader.

[2] = target: T1, Human Abeta1-42 biotinylated at the …; test: capture ELISA: antibody held on anti-mouse IgG Fc-coated plate, C-terminally biotinylated Abeta1-42 titrated in solution, streptavidin-HRP, O.D. 450 nm
Protocol: as §1

[3] = target: T2, full-length sAPPalpha fragment (UniProt P05067-4 18-612, limits assumed); test: indirect ELISA, sAPPalpha coated
T2 construct: domain: sAPPalpha; Bought protein; also called soluble APP alpha; soluble amyloid precursor protein alpha
T2 sequence (P05067 other isoform, or with tags, fused parts or gaps limits assumed): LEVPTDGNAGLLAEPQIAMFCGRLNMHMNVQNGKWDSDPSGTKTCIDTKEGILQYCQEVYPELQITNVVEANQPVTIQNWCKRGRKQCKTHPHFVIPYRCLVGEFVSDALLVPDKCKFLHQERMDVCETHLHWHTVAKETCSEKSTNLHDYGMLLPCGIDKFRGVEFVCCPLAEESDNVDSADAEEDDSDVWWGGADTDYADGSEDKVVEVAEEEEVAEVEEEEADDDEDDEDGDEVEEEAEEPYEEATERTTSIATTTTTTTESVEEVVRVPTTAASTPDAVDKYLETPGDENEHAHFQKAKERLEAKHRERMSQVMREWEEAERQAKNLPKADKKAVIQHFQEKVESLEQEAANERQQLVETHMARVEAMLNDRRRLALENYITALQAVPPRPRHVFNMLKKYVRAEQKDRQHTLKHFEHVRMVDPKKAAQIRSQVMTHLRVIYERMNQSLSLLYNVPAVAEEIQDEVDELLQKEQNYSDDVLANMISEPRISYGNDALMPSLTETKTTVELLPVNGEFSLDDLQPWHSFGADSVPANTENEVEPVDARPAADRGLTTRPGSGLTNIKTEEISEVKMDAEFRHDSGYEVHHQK
Protocol: (§2) Antibody target binding was evaluated by an enzyme-linked immunosorbent assay (ELISA). Briefly, Nunc MaxiSorp 96-well plates (Nunc) were coated for 18 h at 4° C. with 50 μL of 10 pg/mL Abeta1-42 or bovine serum albumin (BSA, Sigma) diluted in PBS. In selected assays, the full-length sAPPalpha fragment (Sigma) was additionally included by coating wells as described above, but at 4 pg/mL (0.04 μM). Plates were then washed 4-times with 300 μL of PBS containing 0.05% Tween20 (Millipore). To block non-specific binding to the plate, freshly prepared solution of PBS containing 0.05% Tween20 and 1% BSA, was added to each well (100 μL/well) and the plates were incubated for 1 h at 37° C. Primary antibodies were diluted to 100 nM in PBS containing 1% BSA and 0.05% Tween20, followed by 3-fold serial dilutions in duplicates. Solutions were added to plates at 50 μL/well and incubated for 1 h at 37° C. Subsequently, the plates were washed 4-times with 300 μL of PBS containing 0.05% Tween20. Plates were then incubated with horseradish peroxidase (HRP) conjugated goat anti-mouse secondary IgG (Abcam) for 1 h at 37° C. After final wash step (4-times with 300 μL of PBS containing 0.05% Tween20), plates were incubated with 3,3′,5,5′-tetramethylbenzidine (TMB) substrate (BD Biosciences) and reaction stopped with a Stop Solution (Sigma). Finally, optical densities (O.D.) were read at 450 nm absorption wavelength using a Tecan Infinite plate reader. Measured values are expressed as mean O.D. from a duplicate run ±1 standard deviation of the mean (S.D.).

[4] = target: T1, Human Abeta1-42 biotinylated at the …; test: target capture ELISA
Protocol: as §1

bovine serum albumin [5] = target: T3, bovine serum albumin (bovine, UniProt P02769 25-607); test: indirect ELISA, plate coated with BSA, antibody titrated, anti-mouse IgG-HRP, O.D. 450 nm
T3 construct: Negative control antigen; also called BSA
Protocol: (§3) Antibody target binding was evaluated by an enzyme-linked immunosorbent assay (ELISA). Briefly, Nunc MaxiSorp 96-well plates (Nunc) were coated for 18 h at 4° C. with 50 μL of 10 pg/mL Abeta1-42 or bovine serum albumin (BSA, Sigma) diluted in PBS. In selected assays, the full-length sAPPalpha fragment (Sigma) was additionally included by coating wells as described above, but at 4 pg/mL (0.04 μM). Plates were then washed 4-times with 300 μL of PBS containing 0.05% Tween20 (Millipore). To block non-specific binding to the plate, freshly prepared solution of PBS containing 0.05% Tween20 and 1% BSA, was added to each well (100 μL/well) and the plates were incubated for 1 h at 37° C. Primary antibodies were diluted to 100 nM in PBS containing 1% BSA and 0.05% Tween20, followed by 3-fold serial dilutions in duplicates. Solutions were added to plates at 50 μL/well and incubated for 1 h at 37° C. Subsequently, the plates were washed 4-times with 300 μL of PBS containing 0.05% Tween20. Plates were then incubated with horseradish peroxidase (HRP) conjugated goat anti-mouse secondary IgG (Abcam) for 1 h at 37° C. […] Finally, optical densities (O.D.) were read at 450 nm absorption wavelength using a Tecan Infinite plate reader. Measured values are expressed as mean O.D. from a duplicate run ±1 standard deviation of the mean (S.D.).

Abeta1-42 [6] = target: T4, Abeta1-42 (human); test: indirect ELISA, plate coated with Abeta1-42, antibody titrated, anti-mouse IgG-HRP, O.D. 450 nm
T4 construct: coated on plates in the direct ELISA, in solution as analyte in the sandwich ELISA; also called human Abeta 1-42; amyloid-beta 1-42
Protocol: as §3

[7] = target: T1, Human Abeta1-42 biotinylated at the …; test: capture ELISA: antibody held on anti-mouse IgG Fc-coated plate, C-terminally biotinylated Abeta1-42 titrated in solution, streptavidin-HRP, O.D. 450 nm; remark: listed apart in the source
Protocol: as §1

Abeta1-42 [8] = target: T4, Abeta1-42; test: sandwich ELISA: ACI-31-25B1-Ab2 coated as capture, analyte Abeta1-42 titrated, biotinylated ACI-24-41F12-Ab3 as detection, streptavidin-HRP, O.D. 450 nm
Protocol: After washing 4-times with 300 μL of PBS containing 0.05% Tween20, the plate was incubated for 45 min at ambient temperature with 50 μL/well of streptavidin-HRP (R&D systems) diluted 1:200 in PBS containing 1% BSA and 0.05% Tween20. The plate was again washed 4-times with 300 μL of PBS containing 0.05% Tween20 before incubating at ambient temperature for 20 or 30 min with 50 or 100 μL/well of 3,3′,5,5′-tetramethylbenzidine (TMB) enzyme substrate (BD Bioscience). Reaction was stopped with a 1.2 M HCl (Sigma) solution. Finally, optical densities (O.D.) were read at 450 nm absorption wavelength using a Tecan Infinite plate reader.
Briefly, a Nunc MaxiSorp 96-well plate (Nunc) was coated for 18 h at 4° C. with 50 μL of capture antibody at 5 μg/mL, diluted in carbonate-bicarbonate buffer. The plate was then washed and blocked as described in the preceding paragraph.

Abeta1-42 [9] = target: T4, Abeta1-42; test: indirect ELISA, Abeta1-42 coated, antibody titrated
Protocol: as §2

Abeta1-42 [10] = target: T4, Abeta1-42; test: indirect ELISA, plate coated with Abeta1-42, antibody titrated, anti-mouse IgG-HRP, O.D. 450 nm; remark: listed apart in the source
Protocol: as §3

bovine serum albumin [11] = target: T3, bovine serum albumin; test: indirect ELISA, plate coated with BSA, antibody titrated, anti-mouse IgG-HRP, O.D. 450 nm; remark: listed apart in the source
Protocol: as §3

[12] = target: T1, Human Abeta1-42 biotinylated at the …; test: capture ELISA: antibody held on anti-mouse IgG Fc-coated plate, C-terminally biotinylated Abeta1-42 titrated in solution, streptavidin-HRP, O.D. 450 nm; remark: listed apart in the source
Protocol: as §1

[13] = target: T1, Human Abeta1-42 biotinylated at the …; test: as above; remark: listed apart in the source
Protocol: as §1

Binder	binding result [3]	binding result [4]	also measured
ACI-8041-1F11B5-Ab1 (antibody, mouse IgG2a, kappa, V domains shown, Murine IgG2a/kappa; also called ACI-8041-1F111B5-Ab1; ACI-8041- F1B5-Ab1) VH: QVQLKESGPGLVAPSQSLSITCTVSGFSLTNYGVSWIRQPPGKGLEWLGVIWGDGSTNYHSALISRLSISKDNSKSQVFLKLNSLQTDDTATYYCTKGAGSWGQGIPVTVSA VL: not shown	no binding		Kd [1]: 0.343 nM; EC50 (read off the curve) [2]: ~0.3 nM
ACI-8041-6C3C4-Ab1 (antibody, mouse IgG2a, kappa, V domains shown, Murine IgG2a/kappa; also called ACD-8041-63C4-Ab1) VH: EVQLQQSGPELVKPGASVNISCKTSGYTFTEYTMHWMKQSHGKSLEWIGGINPNNGVTGYNQKFKGRATLTVDKSSSTAYMELRSLTSEDSAVYYCARSDYDDLYYAMDYWGQGTSVTVSS VL: EIVLTQSPTTMAASPGEKITITCSASSSISSNYLHWYQQKPGFSPKLLIYRTSNLASGVPARFSGSGSGTSYSLTIGTMEAEDVATYYCQQGSSIPFTFGSGTKLEIKR	no binding	binds	
ACI-31-25B1-Ab2 (murine IgG2a with a lambda light chain) (antibody, V domains shown, also called AC-31-25B1-Ab2) VH: EVQLVESGGDLVKPGGSLKLSCAASRFTFSTYGMSWVRQTPDKRLEWVATISSGRSYTYYADSVKGRFTISRDNAKNTLYLQMSSLKSEDTAMYYCARNSNNQRDYYAMDYWGQGTSVTVSS VL: QLVLTQSSSASFSLGASAKLTCTLSSQHITYTIEWYQQQPLKPPKYVMVLEKDGSHSTGDGIPDRFSGSSSGADRYLSISNIQPEDEAVYICGVGDAIKEQFVYVFGGGTKVTVLG			binding result (bovine serum albumin [5]): no binding (tested: 100 nM); Kd [1]: 0.312 nM; EC50 (read off the curve) (Abeta1-42 [6]): ~0.04 nM; EC50 (read off the curve) [7]: ~0.4 nM; EC50 (read off the curve) (Abeta1-42 [8]): ~9 nM; Kd (Abeta1-42 [9]): 0.041 nM
ACI-8041-2B9H5-Ab1 (antibody, mouse IgG2a, kappa, V domains shown, Murine IgG2a/kappa; also called AC-8041-2B95-Ab1) VH: QVQLQQSDAELVKPGASVKISCKVSGYTFTDHPIHWMKQRPDQGLEWIGYFYPRDSSTHYNEKFKGKATLTADKSSSTAYMQLNSLTSEDSAVYFCARSMGYWGQGTSVTVSS VL: DIKMTQSPSSMYASLGERVTITCKASQDINSYLSWFQQKPGKSPKTLIYRANRLVDGVPSRFSGSGSGQDYSLTISSLDYEDMGIYYCLQYDEFPPTFGAGTKLELKR	no binding	binds	
ACI-8039-306H5-Ab1 (antibody, mouse IgG2a, kappa, V domains shown, Murine IgG2a/kappa; also called AC-8039-306H5-Ab1) VH: QVTLKESGPGILKPSQTLSLTCSFSGFSLSTSGMGVGWIRQPSGKGLEWLAHIWWDDDKYYNPSLKSQLTISKDTSRNQIFLKITSVDTADTATYYCVRSLYFDYWGQGTTLTVSS VL: DVVMTQTPLSLPVSLGDQASISCRSSQSLVHSNGNTYLHWYLQKPGQSPKLLIYKVSNRFSGVPDRFSGSGSGTDFTLKISRVEAEDLGVYFCSQSTHVPLTFGAGTKLELKR	no binding	binds	
ACI-8037-103H5-Ab2 (antibody, mouse IgG2a, kappa, V domains shown, Murine IgG2a/kappa) VH: QVTLKESGPGILKPSQTLSLTCSFSGFSLSTSGMGVGWIRQPSGKGLEWLAHIWWDDDKYYNPSLKSRLTISKDSSRNQVFLKITSVDTADTATYYCVRRGTRLEDYFDFWGQGTTLTVSS VL: DVLMTQTPLSLPVSLGDQASISCRSSRSIVHSNGNTYLEWYLQKPGQSPKLLIFKVSNRFSGVPDRFSGSGSGTDFTLKISRVEAEDQGVYYCFQGSHVPLTFGAGTKLELKR		binds	
ACI-8041-3G11B3-Ab1 (antibody, mouse IgG2a, kappa, V domains shown, Murine IgG2a/kappa; also called ACD-8041-3G11B3-Ab1) VH: QVQLQQSGAELVKPGASVKLSCKASGYTFINYYIYWVKQRPGQGLEWIGEIIPSNDGTNFNEKFKTKATLTVDKSSSTAYMQLSSLTSEDSAVYYCTATGTVWGQGTLVTVSA VL: DVLMTQTPLSLPVSLGDQASISCRSSQSIVHSNGITYLEWYLQKPGQSPKLLIYKVSNRFSGVPDRFSGSGSGTDFTLKISRVEAEDLGVYYCFQGSHVPWTFGGGTKLEIKR	no binding	binds	
ACI-8039-309D9-Ab2 (antibody, mouse IgG2a, kappa, V domains shown, Murine IgG2a/kappa; also called AC-8039-309D9-Ab2) VH: QVQLQQSGPQLVRPGASVKISCKASGNSFTSYWMHWVKQRPGQGLEWIGMIDPSDSETRLNQKFKDKATLTVDKSSSTAYMQLSSPTSEDSAVYYCAGLYFTLDYWGQGTSVTVSS VL: DILMTQSPSSLTVSAGEKVTMSCKSSQSLLASGNQNNYLAWHQQKPGRSPKILIIWASTRVSGVPDRFIGSGSGTDFTLTINSVQAEDLAVYYCQQSYSAPLTFGAGTKLELKR	no binding	binds	
ACI-8041-10H3B11-Ab1 (antibody, mouse IgG2a, kappa, V domains shown, Murine IgG2a/kappa; Same VH as ACI-8041-9D7E1-Ab1; also called ACI-8041-11B3B11-Ab1; AC-8041-13B11-Ab) VH: EVMLVESGGGLVKPGGSLKLSCAASGFTFSSYAMSWVRQTPEKRLEWVATISSGGNYTYCPDSVKGRFTISRDNAKNTLYLQMSSLRSEDTAMYYCAAYAYDDGYYFDYWGQGTTLTVSS VL: DIQMTQSPSSLSASLGGKVTITCKASQDINKYIAWYQHKPGKGPRLLIHYTSTLQPGIPSRFSGSGSGRDYSFSISNLGPEDIATYYCLQYDNLLTFGGGTKLEIKR	no binding		Kd [1]: 2.6 nM; EC50 (read off the curve) [13]: ~2 nM

The next lines start with results.

binding result [3]	binding result [4]	Binder	also measured
no binding	binds	ACI-8041-5A2D4-Ab1 (antibody, mouse IgG2a, kappa, V domains shown, Murine IgG2a/kappa) VH: EVQLQQSGPELVKPGASVKISCKTSGYTFTENTMHWVKQIHGKSLEWIGGINPNNGVTNNNQKFEGKATLTVDKSSSTAYMELRSLTSEDSAVYYCARSDYDALYYSMDCWGQGTSVTVSS VL: EIVLTQSPTTMAASPGEKITITCSGSSSIISNYLHWYQQKPGFSPKLLIYRTSNLASGVPTRFSGSGSGTSYSLTIGTMEAEDVATYYCQQGSSIPFTFGSGTKLEIKR	
	binds	ACI-24-41F12-Ab3 (IgG2a isotype) (antibody, V domains shown, Recombinant murine IgG2a/kappa with the same VH/VL as ACI-24-41F12-Ab2; Biotinylated when used as detection antibody in the sandwich ELISA; also called ACI-24-41F12-Ab3-rec1) VH: not shown VL: DVLMTQTPLSLPVSLGDQASISCRSSQSIVHSNGNTYLEWYLQKPGQSPKLLIYKVSNRFSGVPDRFSGSGSGTDFTLKISRVEAEDLGVYYCFQGSHVPLTFGAGTKLELKR	Kd (Abeta1-42 [9]): 0.066 nM; EC50 (read off the curve) (Abeta1-42 [10]): ~0.07 nM; binding result (bovine serum albumin [11]): no binding (tested: 100 nM)
	binds	ACI-8037-109F4-Ab1 (antibody, mouse IgG2a, kappa, V domains shown, Murine IgG2a/kappa) VH: QVTLKESGPGILQPSQTLSLTCSFSGFSLSTSGMGVSWIRQPSGKGLEWLAHIYWDDDKRYNPSLKSRLTISKDTSRNQVFLKITSVDTADAGTYYCARRPIRTVVDAMDYWGQGTSVTVSL VL: DVLMTQTPLSLPVSLGDQASISCRSSQTIVHSNGNTYLEWYLQKPGQSPNLLIYKVSNRFSGVPDRFSGSGSGTDFTLKISRVEAEDLGVYYCFQGSHVPLTFGAGTKLELKR	
no binding	binds	ACI-8041-4G6D2-Ab1 (antibody, mouse IgG2a, kappa, V domains shown, Murine IgG2a/kappa) VH: QVQLQQSGAELVRPGASVKLSCKASGYTFTSYYMYWVKQRPGQGLEWIGEIIPSNGDTNFNEKFRSKATLTVDKSSSTAYMQLSSLTSEDSAVYYCTATGTVWGQGTLVTVSA VL: DVLMTQTPLSLPVSLGDQASISCRSSQSIVHSNGNTYLEWYLQKPGQSPKLLIYKVSNRFSGVPDRFSGSGSGTDFTLKISRVEAEDLGVYYCFQGSHVPWTFGGGTKLEIKR	
no binding	binds	ACI-8041-5A6H9-Ab1 (antibody, mouse IgG2a, kappa, V domains shown, Murine IgG2a/kappa; also called ACI-8041-5A61H9-Ab1; AC-8041-5A619-Ab1) VH: DVQLQESGPGLVKPSQSLSLTCTVTGYSITSDYAWNWIRQFPGNKLEWMGYIDYSGITSYNPSLKSRISITRDTSKNQFFLQLNSVTTEDSATYYCARISGLDYDVRAGWFASWGQGTLVTVSA VL: DIVMTQAAFSNPVTLGTSVSISCRSSKSLLHSNGITYLYWYLQKPGQSPQLLIYQMSNLASGVPDRFSSSGSGTDFTLRISRVEAEDVGVYYCAQNLERPLTFGAGTKLELKR	
no binding	binds	ACI-8039-307F7-Ab2 (antibody, mouse IgG2a, kappa, V domains shown, Murine IgG2a/kappa; also called AC-8039-307F7-Ab2) VH: QVQLQQPGAELVRPGGSVKLSCKASGYSFTNYWMNWVKQRPGQGLEWIGMIHPSDSETRLNQKFKDKATLTVDKSSSTAYLQLSSPTSEDSAVYYCAKLLLYYFDYWGQGTTLTVSS VL: not shown	
no binding		ACI-8041-9D7E1-Ab1 (antibody, mouse IgG2a, kappa, V domains shown, Murine IgG2a/kappa) VH: EVMLVESGGGLVKPGGSLKLSCAASGFTFSSYAMSWVRQTPEKRLEWVATISSGGNYTYCPDSVKGRFTISRDNAKNTLYLQMSSLRSEDTAMYYCAAYAYDDGYYFDYWGQGTTLTVSS VL: not shown	Kd [1]: 1.1 nM; EC50 (read off the curve) [12]: ~1 nM
